Laboratory results published in patent publication US20200040064A1 (OHIO STATE INNOVATION FOUNDATION, published 2020).

Target: T1, protein A on wild type Staphylococcus aureus newman strain bacteria (Staphylococcus aureus (newman strain), UniProt P0A015 37-419)
T1 construct: also called wt S.A; Staphylococcus aureus (wt)
Test: flow cytometry, labeled CD64 on wt S. aureus in the absence of rituximab

B1: fluorescently labeled human Fcγ receptor CD64 (receptor)
chain: QVDTTKAVITLQPPWVSVFQEETVTLHCEVLHLPGSSSTQWFLNGTATQTSTPSYRITSASVNDSGEYRCQRGLSGRSDPIQLEIHRGWLLLQVSSRVFTEGEPLALRCHAWKDKLVYNVLYYRNGKAFKFFHWNSNLTILKTNISHNGTYHCSGMGKHRYTSAGISVTVKELFPAPVLNASVTSPLLEGNLVTLSCETKLLLQRPGLQLYFSFYMGSKTLRGRNTSSEYQILTARREDSGLYWCEAATEDGNVLKRSPELELQVLGLQLPTP
modifications: fluorescently labeled
  binding result: no binding
